Earlier results in article PMC4184475.

Legend:
[1] = molecular target: Cys473 (UniProt position 487, ILIFHCEFSSE); conditions: reduced thiol form (implied); otherwise not stated
[2] = molecular target: Cys106 (UniProt position 106, LIAAICAGPTA); conditions: reduced thiol form (implied); otherwise not stated

## Cdc25B phosphatase (M-phase inducer phosphatase 2) (Homo sapiens)
[1]
  pKa: 5.8

## DJ-1 (Parkinson disease protein 7) (Homo sapiens)
[2]
  pKa: 5.4
